Measurements reported in doi:10.1101/2024.11.27.625426 (bioRxiv, 2024).
Numbering of substitutions follows the chain as printed.

B1: NCS.1.1 mAb (IgG) (antibody, V domains shown)
VH: QVQLQESGPRLVKPSETLSLTCSVSGESISSGGYYWTWIRQHPGKGLEWIGNIFDTGSTDYSPSLKTRLTISIDTSKNQFYLRLNSATAADTAVYYCARVGFSLETDRPYYLGLDVWGQGTTVTVSS
VL: DIVMTQSPLSLPVTPGEPASISCRSSQSLLHSNGYTYLDWYLQKPGQSPQLLISFTSNRASGVPDRFSGSGSGTYFTLKISRVEAEDVGVYYCMQAVQTPWTFGQGTKVEIK
notes: copies: 2 + 2
B2: NCS.1.3 mAb (IgG) (antibody, V domains shown)
VH: B1 VH with N85T
VL: B1 VL with S10T, S54Y, T56A, T99S
notes: copies: 2 + 2

Experiments:
[1] = biological target: sNAp of A/New Caledonia/20/1999 (NC99, H1N1) NA (Influenza A virus A/New …, UniProt Q7TG96, stabilised); assay: ELISA; details: both partners purified
[2] = biological target: T1, NA of influenza B-Victoria lineage virus B/Colorado/06/2017 (B/Vic CO17) (Influenza B virus B/Colorado/06/2017 …, UniProt A0A1X9RX69); assay: ELISA; details: both partners purified
T1 construct: not shown: His6, N-terminal, kept

Binder | binding result [1] | binding result [2]
B1 | binds | binds
B2 | binds | binds
